# Measurements as given in patent US20260001928A1 (CORTERIA PHARMACEUTICALS, priority 2022, published 2026).
# *1 amine or outer side, *2 acyl side, *3 side chain or, on linkers, in order; H or OH if unused. Where no end group is shown, it is not given here. Side-chain parts run from the residue outwards. [ ]: non-standard residue; d: D form. The star is where a group is joined. C18 diacid = O=C(O)CCCCCCCCCCCCCCCCC(=O)*; C16 diacid = O=C(O)CCCCCCCCCCCCCCC(=O)*; γGlu = O=C(O)[C@H](CCC(=O)[*:2])N[*:1]; NMeI = CC[C@H](C)[C@H](NC)C(=O)O; Pentanoyl = CCCCC(=O)*; AEEA = NCCOCCOCC(=O)O; Aib = CC(C)(N)C(=O)O
# Tests used:
# CRF1R receptor = biological target: T1, CRF1R receptor (UniProt P34998 24-415, limits assumed); test: cell-based or functional assay
# T1 sequence (looked up): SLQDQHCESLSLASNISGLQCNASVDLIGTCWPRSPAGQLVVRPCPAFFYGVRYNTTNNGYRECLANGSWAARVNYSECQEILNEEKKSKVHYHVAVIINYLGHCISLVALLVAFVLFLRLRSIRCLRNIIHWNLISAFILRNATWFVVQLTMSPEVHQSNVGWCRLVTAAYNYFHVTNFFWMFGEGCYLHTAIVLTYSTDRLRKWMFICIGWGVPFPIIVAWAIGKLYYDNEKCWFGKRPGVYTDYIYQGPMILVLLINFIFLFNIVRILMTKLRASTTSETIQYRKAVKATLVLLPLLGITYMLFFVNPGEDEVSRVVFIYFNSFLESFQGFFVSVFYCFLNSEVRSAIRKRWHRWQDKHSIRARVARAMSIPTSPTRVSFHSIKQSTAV
# [1] = biological target: human corticotropin-releasing factor 2a (CRF2a receptor) (human), Q13324; test: cell-based or functional assay
# human corticotropin-releasing factor 2a (CRF2a receptor) (human), Q13324, sequence (Q13324 20-411): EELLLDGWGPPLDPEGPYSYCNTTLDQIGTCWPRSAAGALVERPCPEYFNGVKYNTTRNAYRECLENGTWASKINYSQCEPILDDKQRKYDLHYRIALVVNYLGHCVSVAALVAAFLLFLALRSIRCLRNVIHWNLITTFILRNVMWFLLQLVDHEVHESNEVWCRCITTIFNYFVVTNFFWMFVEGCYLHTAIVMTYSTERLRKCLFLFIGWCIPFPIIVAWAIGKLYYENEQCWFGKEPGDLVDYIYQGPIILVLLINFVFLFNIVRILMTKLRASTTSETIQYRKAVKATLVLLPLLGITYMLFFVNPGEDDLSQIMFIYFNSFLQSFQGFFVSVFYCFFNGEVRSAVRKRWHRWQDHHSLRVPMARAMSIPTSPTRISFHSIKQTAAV
Binder,EC50 (CRF1R receptor) [nM],Emax (% I) (CRF1R receptor) [%],EC50 [nM] (cAMP) [1]
[NMeI]VLSLD[dV]PIKLK([γGlu-C16 diacid])QILLKQERQKKQREQAEKNKQILEQV-NH2 (N-terminus assumed; SMILES CC[C@H](C)[C@H](NC)C(=O)N[C@H](C(=O)N[C@@H](CC(C)C)C(=O)N[C@@H](CO)C(=O)N[C@@H](CC(C)C)C(=O)N[C@@H](CC(=O)O)C(=O)N[C@@H](C(=O)N1CCC[C@H]1C(=O)N[C@H](C(=O)N[C@@H](CCCCN)C(=O)N[C@@H](CC(C)C)C(=O)N[C@@H](CCCCNC(=O)CC[C@H](NC(=O)CCCCCCCCCCCCCCC(=O)O)C(=O)O)C(=O)N[C@@H](CCC(N)=O)C(=O)N[C@H](C(=O)N[C@@H](CC(C)C)C(=O)N[C@@H](CC(C)C)C(=O)N[C@@H](CCCCN)C(=O)N[C@@H](CCC(N)=O)C(=O)N[C@@H](CCC(=O)O)C(=O)N[C@@H](CCCNC(=N)N)C(=O)N[C@@H](CCC(N)=O)C(=O)N[C@@H](CCCCN)C(=O)N[C@@H](CCCCN)C(=O)N[C@@H](CCC(N)=O)C(=O)N[C@@H](CCCNC(=N)N)C(=O)N[C@@H](CCC(=O)O)C(=O)N[C@@H](CCC(N)=O)C(=O)N[C@@H](C)C(=O)N[C@@H](CCC(=O)O)C(=O)N[C@@H](CCCCN)C(=O)N[C@@H](CC(N)=O)C(=O)N[C@@H](CCCCN)C(=O)N[C@@H](CCC(N)=O)C(=O)N[C@H](C(=O)N[C@@H](CC(C)C)C(=O)N[C@@H](CCC(=O)O)C(=O)N[C@@H](CCC(N)=O)C(=O)N[C@H](C(N)=O)C(C)C)[C@@H](C)CC)[C@@H](C)CC)[C@@H](C)CC)C(C)C)C(C)C) [SEQ ID NO 5],158,48,0.09
[NMeI]VLSLD[dV]PIKLK([AEEA-AEEA-γGlu-γGlu-C18 diacid])QILLKQERQKKQREQAEKN[Aib]QILEQV-NH2 (N-terminus assumed; SMILES CC[C@H](C)[C@H](NC)C(=O)N[C@H](C(=O)N[C@@H](CC(C)C)C(=O)N[C@@H](CO)C(=O)N[C@@H](CC(C)C)C(=O)N[C@@H](CC(=O)O)C(=O)N[C@@H](C(=O)N1CCC[C@H]1C(=O)N[C@H](C(=O)N[C@@H](CCCCN)C(=O)N[C@@H](CC(C)C)C(=O)N[C@@H](CCCCNC(=O)COCCOCCNC(=O)COCCOCCNC(=O)CC[C@H](NC(=O)CC[C@H](NC(=O)CCCCCCCCCCCCCCCCC(=O)O)C(=O)O)C(=O)O)C(=O)N[C@@H](CCC(N)=O)C(=O)N[C@H](C(=O)N[C@@H](CC(C)C)C(=O)N[C@@H](CC(C)C)C(=O)N[C@@H](CCCCN)C(=O)N[C@@H](CCC(N)=O)C(=O)N[C@@H](CCC(=O)O)C(=O)N[C@@H](CCCNC(=N)N)C(=O)N[C@@H](CCC(N)=O)C(=O)N[C@@H](CCCCN)C(=O)N[C@@H](CCCCN)C(=O)N[C@@H](CCC(N)=O)C(=O)N[C@@H](CCCNC(=N)N)C(=O)N[C@@H](CCC(=O)O)C(=O)N[C@@H](CCC(N)=O)C(=O)N[C@@H](C)C(=O)N[C@@H](CCC(=O)O)C(=O)N[C@@H](CCCCN)C(=O)N[C@@H](CC(N)=O)C(=O)NC(C)(C)C(=O)N[C@@H](CCC(N)=O)C(=O)N[C@H](C(=O)N[C@@H](CC(C)C)C(=O)N[C@@H](CCC(=O)O)C(=O)N[C@@H](CCC(N)=O)C(=O)N[C@H](C(N)=O)C(C)C)[C@@H](C)CC)[C@@H](C)CC)[C@@H](C)CC)C(C)C)C(C)C) [SEQ ID NO 31],> 250,14,0.23
Ac-IVLSLD[dV]PIKLK([AEEA-AEEA-γGlu-γGlu-C18 diacid])QILLKQERQKKQREQAEKN[Aib]QILEQV-NH2 (SMILES CC[C@H](C)[C@H](NC(C)=O)C(=O)N[C@H](C(=O)N[C@@H](CC(C)C)C(=O)N[C@@H](CO)C(=O)N[C@@H](CC(C)C)C(=O)N[C@@H](CC(=O)O)C(=O)N[C@@H](C(=O)N1CCC[C@H]1C(=O)N[C@H](C(=O)N[C@@H](CCCCN)C(=O)N[C@@H](CC(C)C)C(=O)N[C@@H](CCCCNC(=O)COCCOCCNC(=O)COCCOCCNC(=O)CC[C@H](NC(=O)CC[C@H](NC(=O)CCCCCCCCCCCCCCCCC(=O)O)C(=O)O)C(=O)O)C(=O)N[C@@H](CCC(N)=O)C(=O)N[C@H](C(=O)N[C@@H](CC(C)C)C(=O)N[C@@H](CC(C)C)C(=O)N[C@@H](CCCCN)C(=O)N[C@@H](CCC(N)=O)C(=O)N[C@@H](CCC(=O)O)C(=O)N[C@@H](CCCNC(=N)N)C(=O)N[C@@H](CCC(N)=O)C(=O)N[C@@H](CCCCN)C(=O)N[C@@H](CCCCN)C(=O)N[C@@H](CCC(N)=O)C(=O)N[C@@H](CCCNC(=N)N)C(=O)N[C@@H](CCC(=O)O)C(=O)N[C@@H](CCC(N)=O)C(=O)N[C@@H](C)C(=O)N[C@@H](CCC(=O)O)C(=O)N[C@@H](CCCCN)C(=O)N[C@@H](CC(N)=O)C(=O)NC(C)(C)C(=O)N[C@@H](CCC(N)=O)C(=O)N[C@H](C(=O)N[C@@H](CC(C)C)C(=O)N[C@@H](CCC(=O)O)C(=O)N[C@@H](CCC(N)=O)C(=O)N[C@H](C(N)=O)C(C)C)[C@@H](C)CC)[C@@H](C)CC)[C@@H](C)CC)C(C)C)C(C)C) [SEQ ID NO 30],> 250,15,0.29
Ac-IVLSLD[dV]PIKLK([γGlu-γGlu-C16 diacid])KILLEQEKQKKQREQAETN[Aib]QILAQV-NH2 (SMILES CC[C@H](C)[C@H](NC(C)=O)C(=O)N[C@H](C(=O)N[C@@H](CC(C)C)C(=O)N[C@@H](CO)C(=O)N[C@@H](CC(C)C)C(=O)N[C@@H](CC(=O)O)C(=O)N[C@@H](C(=O)N1CCC[C@H]1C(=O)N[C@H](C(=O)N[C@@H](CCCCN)C(=O)N[C@@H](CC(C)C)C(=O)N[C@@H](CCCCNC(=O)CC[C@H](NC(=O)CC[C@H](NC(=O)CCCCCCCCCCCCCCC(=O)O)C(=O)O)C(=O)O)C(=O)N[C@@H](CCCCN)C(=O)N[C@H](C(=O)N[C@@H](CC(C)C)C(=O)N[C@@H](CC(C)C)C(=O)N[C@@H](CCC(=O)O)C(=O)N[C@@H](CCC(N)=O)C(=O)N[C@@H](CCC(=O)O)C(=O)N[C@@H](CCCCN)C(=O)N[C@@H](CCC(N)=O)C(=O)N[C@@H](CCCCN)C(=O)N[C@@H](CCCCN)C(=O)N[C@@H](CCC(N)=O)C(=O)N[C@@H](CCCNC(=N)N)C(=O)N[C@@H](CCC(=O)O)C(=O)N[C@@H](CCC(N)=O)C(=O)N[C@@H](C)C(=O)N[C@@H](CCC(=O)O)C(=O)N[C@H](C(=O)N[C@@H](CC(N)=O)C(=O)NC(C)(C)C(=O)N[C@@H](CCC(N)=O)C(=O)N[C@H](C(=O)N[C@@H](CC(C)C)C(=O)N[C@@H](C)C(=O)N[C@@H](CCC(N)=O)C(=O)N[C@H](C(N)=O)C(C)C)[C@@H](C)CC)[C@@H](C)O)[C@@H](C)CC)[C@@H](C)CC)C(C)C)C(C)C) [SEQ ID NO 41],–,7,1.85
Pentanoyl-VLSLD[dV]PIKLK([AEEA-AEEA-γGlu-γGlu-C18 diacid])QILLKQERQKKQREQAEKN[Aib]QILEQV-NH2 (SMILES CCCCC(=O)N[C@H](C(=O)N[C@@H](CC(C)C)C(=O)N[C@@H](CO)C(=O)N[C@@H](CC(C)C)C(=O)N[C@@H](CC(=O)O)C(=O)N[C@@H](C(=O)N1CCC[C@H]1C(=O)N[C@H](C(=O)N[C@@H](CCCCN)C(=O)N[C@@H](CC(C)C)C(=O)N[C@@H](CCCCNC(=O)COCCOCCNC(=O)COCCOCCNC(=O)CC[C@H](NC(=O)CC[C@H](NC(=O)CCCCCCCCCCCCCCCCC(=O)O)C(=O)O)C(=O)O)C(=O)N[C@@H](CCC(N)=O)C(=O)N[C@H](C(=O)N[C@@H](CC(C)C)C(=O)N[C@@H](CC(C)C)C(=O)N[C@@H](CCCCN)C(=O)N[C@@H](CCC(N)=O)C(=O)N[C@@H](CCC(=O)O)C(=O)N[C@@H](CCCNC(=N)N)C(=O)N[C@@H](CCC(N)=O)C(=O)N[C@@H](CCCCN)C(=O)N[C@@H](CCCCN)C(=O)N[C@@H](CCC(N)=O)C(=O)N[C@@H](CCCNC(=N)N)C(=O)N[C@@H](CCC(=O)O)C(=O)N[C@@H](CCC(N)=O)C(=O)N[C@@H](C)C(=O)N[C@@H](CCC(=O)O)C(=O)N[C@@H](CCCCN)C(=O)N[C@@H](CC(N)=O)C(=O)NC(C)(C)C(=O)N[C@@H](CCC(N)=O)C(=O)N[C@H](C(=O)N[C@@H](CC(C)C)C(=O)N[C@@H](CCC(=O)O)C(=O)N[C@@H](CCC(N)=O)C(=O)N[C@H](C(N)=O)C(C)C)[C@@H](C)CC)[C@@H](C)CC)[C@@H](C)CC)C(C)C)C(C)C) [SEQ ID NO 32],> 250,5,1.04
Ac-IVLSLD[dV]PIKLK([AEEA-AEEA-γGlu-C16 diacid])KILLEQEKQKKQREQAETN[Aib]QILAQV-NH2 (SMILES CC[C@H](C)[C@H](NC(C)=O)C(=O)N[C@H](C(=O)N[C@@H](CC(C)C)C(=O)N[C@@H](CO)C(=O)N[C@@H](CC(C)C)C(=O)N[C@@H](CC(=O)O)C(=O)N[C@@H](C(=O)N1CCC[C@H]1C(=O)N[C@H](C(=O)N[C@@H](CCCCN)C(=O)N[C@@H](CC(C)C)C(=O)N[C@@H](CCCCNC(=O)COCCOCCNC(=O)COCCOCCNC(=O)CC[C@H](NC(=O)CCCCCCCCCCCCCCC(=O)O)C(=O)O)C(=O)N[C@@H](CCCCN)C(=O)N[C@H](C(=O)N[C@@H](CC(C)C)C(=O)N[C@@H](CC(C)C)C(=O)N[C@@H](CCC(=O)O)C(=O)N[C@@H](CCC(N)=O)C(=O)N[C@@H](CCC(=O)O)C(=O)N[C@@H](CCCCN)C(=O)N[C@@H](CCC(N)=O)C(=O)N[C@@H](CCCCN)C(=O)N[C@@H](CCCCN)C(=O)N[C@@H](CCC(N)=O)C(=O)N[C@@H](CCCNC(=N)N)C(=O)N[C@@H](CCC(=O)O)C(=O)N[C@@H](CCC(N)=O)C(=O)N[C@@H](C)C(=O)N[C@@H](CCC(=O)O)C(=O)N[C@H](C(=O)N[C@@H](CC(N)=O)C(=O)NC(C)(C)C(=O)N[C@@H](CCC(N)=O)C(=O)N[C@H](C(=O)N[C@@H](CC(C)C)C(=O)N[C@@H](C)C(=O)N[C@@H](CCC(N)=O)C(=O)N[C@H](C(N)=O)C(C)C)[C@@H](C)CC)[C@@H](C)O)[C@@H](C)CC)[C@@H](C)CC)C(C)C)C(C)C) [SEQ ID NO 42],–,1,3.08
